We go through four proteins from PMC2654063, “Three New Structures of Left-Handed RadA Helical Filaments: Structural Flexibility of N-Terminal Domain Is Critical for Recombinase Activity” (PLoS ONE, 2009).

The chains are these.
B1: SsoRadA (Sulfolobus solfataricus RadA) (Saccharolobus solfataricus P2) (protein)
chain: MSNEVEQKKNIKTINDLPGISQTVINKLIEAGYSSLETLAVASPQDLSVAAGIPLSTAQKIIKEARDALDIRFKTALEVKKERMNVKKISTGSQALDGLLAGGIETRTMTEFFGEFGSGKTQLCHQLSVNVQLPPEKGGLSGKAVYIDTEGTFRWERIENMAKALGLDIDNVMNNIYYIRAINTDHQIAIVDDLQELVSKDPSIKLIVVDSVTSHFRAEYPGRENLAVRQQKLNKHLHQLTRLAEVYDIAVIITNQVMARPDMFYGDPTVAVGGHTLYHVPGIRIQLKKSRGNRRIARVVDAPHLPEGEVVFALTEEGIRDAEE
notes: purified recombinant protein; homo-oligomeric nucleoprotein filament on ssDNA; F73, R72, R83 given
B2: SsoRadA (Sulfolobus solfataricus RadA) (Saccharolobus solfataricus P2; R72P) (protein)
chain: MSNEVEQKKNIKTINDLPGISQTVINKLIEAGYSSLETLAVASPQDLSVAAGIPLSTAQKIIKEARDALDIPFKTALEVKKERMNVKKISTGSQALDGLLAGGIETRTMTEFFGEFGSGKTQLCHQLSVNVQLPPEKGGLSGKAVYIDTEGTFRWERIENMAKALGLDIDNVMNNIYYIRAINTDHQIAIVDDLQELVSKDPSIKLIVVDSVTSHFRAEYPGRENLAVRQQKLNKHLHQLTRLAEVYDIAVIITNQVMARPDMFYGDPTVAVGGHTLYHVPGIRIQLKKSRGNRRIARVVDAPHLPEGEVVFALTEEGIRDAEE
notes: as for B1
B3: SsoRadA (Sulfolobus solfataricus RadA) (Saccharolobus solfataricus P2; R72A) (protein)
chain: MSNEVEQKKNIKTINDLPGISQTVINKLIEAGYSSLETLAVASPQDLSVAAGIPLSTAQKIIKEARDALDIAFKTALEVKKERMNVKKISTGSQALDGLLAGGIETRTMTEFFGEFGSGKTQLCHQLSVNVQLPPEKGGLSGKAVYIDTEGTFRWERIENMAKALGLDIDNVMNNIYYIRAINTDHQIAIVDDLQELVSKDPSIKLIVVDSVTSHFRAEYPGRENLAVRQQKLNKHLHQLTRLAEVYDIAVIITNQVMARPDMFYGDPTVAVGGHTLYHVPGIRIQLKKSRGNRRIARVVDAPHLPEGEVVFALTEEGIRDAEE
notes: as for B1
B4: SsoRadA (Sulfolobus solfataricus RadA) (Saccharolobus solfataricus P2; R72G) (protein)
chain: MSNEVEQKKNIKTINDLPGISQTVINKLIEAGYSSLETLAVASPQDLSVAAGIPLSTAQKIIKEARDALDIGFKTALEVKKERMNVKKISTGSQALDGLLAGGIETRTMTEFFGEFGSGKTQLCHQLSVNVQLPPEKGGLSGKAVYIDTEGTFRWERIENMAKALGLDIDNVMNNIYYIRAINTDHQIAIVDDLQELVSKDPSIKLIVVDSVTSHFRAEYPGRENLAVRQQKLNKHLHQLTRLAEVYDIAVIITNQVMARPDMFYGDPTVAVGGHTLYHVPGIRIQLKKSRGNRRIARVVDAPHLPEGEVVFALTEEGIRDAEE
notes: as for B1

Substrate in the series: Nc1ncnc2c1ncn2[C@@H]1O[C@H](COP(=O)(O)OP(=O)(O)OP(=O)(O)O)[C@@H](O)[C@H]1O
In words: purified protein. It is filed as biochemical, Saccharolobus solfataricus. The note with it: with ssDNA; labelled compound.
Turning to B1, the Michaelis constant (Km) is 398 ± 52 µM and the turnover number (kcat) was found to be 0.000617 ± 5e-05 s⁻¹.

As for B2, the Michaelis-Menten constant (Km) amounted to 143 ± 10 µM and the turnover number (kcat) was found to be 0.000267 ± 1.7e-05 s⁻¹.

For B3, the Km stood at 37 ± 11 µM and the catalytic constant (kcat) amounted to 0.000183 ± 3.3e-05 s⁻¹.

For the protein B4, the Km was found to be 176 ± 23 µM and the turnover number (kcat) turned out to be 0.000267 ± 1.7e-05 s⁻¹.
